Experimental data as given in a protein production outcome set (Wang et al. 2014).

Test: label from the status in PepcDB records

Sequence	protein production
MGIRRLVSVITRPIINKVNSSGQYSRVLATREDQDKASPKYMNNDKIAKKPYTYRLFSILGILSICSLLLISLLKPFNGADAPQCESIYMFPSYARIDGFDERYTPLAHKYHLYLYREQSVDREPLNGDELQLDGIPVLFIPGNAGSFRQCRSIASACSNIYFDSNTRATLRNENVRNLDFFTADFNEDFTAFHGETMLDQAEYLNDAIKYILSLYERTPDYPHPKPQSVIIVGHSMGGIVSRVMLTLKNHVPGSISTILTLSSPHAASPVTFDGDILKLYKNTNEYWRKQLSQNDSFFSKNISLVSITGGILDTTLPADYASVEDLVSLENGFTSFTTTIPDVWTPIDHLAIVWCKQLREVLARLLLESIDASKPEKVKPLNQRLQIARKLLLSGFEDYSWMNSKLNYPQENLQEFSDNFFSDYATLEMNDVLDFEMFNLEKWHNNYTKINIPSNISSTEHLHFTLLTSLDMPMIYFCTESRVNLSCITAVDSILTVPRSSKDTQFAADSSFGEAKNPFKAVSVGKNILQKYDYLMISKPTYGEFSEQEGMEDNQGFLLALLRNVSNVQIVNTTPSQILLFGEQLHLDGKDIEQVISFSNLWDSLLSYKLETKIEASNEGIASEETLFQPFIRQWVYEPFESKWHLNIINKSLDINMHNVAPFIPLNESEPRSLQLSFFIPPGMSLEAKMTINWSLTLKMLFIRYRLALASFPVAFIALVLSYQFYWYNKTSEFPSFDSTLGYILRKHGILMFFTLFLASPVVNNKLVQRILYLLDPVGLNYPFLLSERNMHANFYYLGIRDWFMSTIGILFGVMTVGLLALVSKIFGSLEILVIFLQRKLSKKNTEDKEAFDTIEHKAYGKGRLMASVLLLLLVFFHIPYQMAFVISLVIQIATCIRVALLKLSNNEQKLNLLNYNMTLLLLLLFVSAINIPIIIVFLHNVAIKWETSFRSHHNILAVAPIIFLVGNNSIFKMPNSVPLDTWDGKVTIILFVYLTVFSFIYGIRNLYWIHHLVNIICAWLLFFETIH	failed
MTKFKGIIYASLGAAFFGISSIIAGLLFNRCSIEPGWLVTTRMLFSGLLLLAWLAITKHNIFSVWSSVKSSLRIVAFGIFGVLFAQSSFLLSVYYGNAAIATILQSLGPSIIIIILAIKSKAIPRRLDIIAIFLSLIGVFLLVTNGNIGELSFSASALVWGLLSALGVCAYTLIPCPLIKEHPPLSLVAWALLIGGVISNFLHPVTNLPKNFDQTDLLLVSLIVVVGTLLAYSLYINSLKYTEPHIVGMLGMLEPVTAILISTLFLGVSFLGFQQLGIFVVFLSLFLINFPAKKK	failed
DGKLYTLNYGKVSSIALDPIEKKPLFHFWPGSCAFSIGTVGCNMHCKHCQNWEISQADESFPYLQDATPESIVRLARHYECESIAYTYNEPTIWYEFVLDTAKLAKKEGLNNILVTNGYINEEPFRELAKYIDAMNIDIKAFNDKFYMKISSVPSGEPSRRTAVIAKKEFGIHVELTYLIIPTLNDNEEEIRRFARWVVEELGDDTPVHFSRFFPHYKLLNLPPTPIQTLEKAYKIAKEEGLKFVYLGNVPGHEGENTYCPRCGKLLIERWGFEILRYEIKDGKCKY	failed
MSDHEAGHKFLARLGKKRLRPGGRKATEWLLSQAAFRQDSVVLEVACNMGTTAMEIARRFGCKVIGADMDKAALQKAQENVAANGLASQVTIMQANALELPFPDNHFDVVINEAMLTMYADKAKSRIIAEYYRVLKPGGRLITHDIMLLSEKDTGALQAVEQMHKAINVHAQPMLRERWVTLFQECGFSKVNYDNGAMTLLTPQGLIYDEGVAGAARIVKNALKKENRSMFFNMFHTFRRNRNQLNYIAVCSTK	failed
MRGGGILDYIGYFLVAIIVIFVVVKLLEWPIKMLVKLIINGVIGAIMLFALNIFGKYIGISIGINIVTALIAGIFGIPGVIFLVILKFIM	failed
MAARGFRAGADHLRHQFCPPLVDPHRPWTARMKLLALSGSLRADSVNTALLRALAEAAPAGVEVCFFDGLRDLPLFNPDAEERENAAVTAWRAALRGADAVVISSPEYAHGIPGAFKNALDWVVGSAEFDGKPTLLLCASARPQHAPAQLAEVLRTMGARVQGPHLLDLPGNVAAAQSALRTPAQQAEARELLAALLP	failed
MELGSVATFSLYPDLYARFRPSYPEELYDWLLPLCPGRQRAWDCATGSGQTAVRLGESFSRVDATDISSSQLSAAEPHTQVYYRECPAEVTPFDDDCFDLICVSQALHWFHLPSFWPEMQRVLKPGGIFAAWGYHHCVVSPEVDRACSVLWSIIEPFWSSRCQLLWDDFRGSGCPLPLLKAPSFTISSDWALDHFLGFLNTTSASKLCKQALGESILDDACQRITRAWGPRNQVRRVDLPLHLMVARKDDAGGYAG	failed
MLALVKRNCLLYFRNRSGVVFSLLGALISFILYLVFLKDNIESSWSQIDNTNQLLDTWLIGGTLAITGITTTLSNLSQWTKDKESHVRQDLLITDLGYWPLSLSYIISAALVGFIMQAIMLTIMGTYFYFTDKVTLSWTVLLQLIFIMILNTLISTIINALIVNRIQSVDNLGKLATIFGAASGFLVGTYVPIGALPDTAQTIMKLTPGAYIASLFRQTLMSDTLKDNFSQANAREHFEKMMGIRLNWQNLLTNTDTYYIVIGILVAGVLIFCLQNALRKYQALI	failed
MTQVRETVSFKAGDVILYPGVPGPRDRAYRVLEGLVRLEAVDEEGNALTLRLVRPGGFFGEEALFGQERIYFAEAATDVRLEPLPENPDPELLKDLAQHLSQGLAEAYRRIERLATQRLKNRMAAALLELSETPLAHEEEGKVVLKATHDELAAAVGSVRETVTKVIGELAREGYIRSGYGKIQLLDLKGLKELAESRGQGR	not failed
MFTGFNWQQMISAFIVLFAVIDIIGSIPIIINLKEKGKDVNATKATVISFALLIGFFYAGDMMLKLFHVDIESFAVAGAFVIFLMSLEMILDIEIFKNQGPIKEATLVPLVFPLLAGAGAFTTLLSLRAEYASVNIIIALILNMLWVYFVVSMTGRVERFLGKGGIYIIRKFFGIILLAISVRLFTANITLLIEALHKS	failed
LRKSEERWQLAIVGTDEAIWDWDILTNHTYRSDRWFEMLGYERHEMSTFDDEWSIRIHPDDYNRVMAAQAAYLRREVPVYYTEYRLRCKDGNYKWFRSRAKGVWDEQGNPIRLVGSLGDITGRKSIELD	not failed
MEITPKRYWRRWRGYEKLDGSSETTSGRRKGKRVKMDPTRKKRFWRIKIVPKLRILKTASPKKFLVWLRDSYVKMMMRLANSRVVGSSGYGGSGFGSGQMKEYDEKMLVEIYKSILMVQAQGNLVHRDTPNNNLKLPSEPAVVSVVSSVVTC	failed
MSQNLQETSQAYPRHRPGSHAGPKSLKVTPRATMYTFLPDNFSPAKPKPTKELRPLLCSAVLGLLLVLAAVVAWCYYSASLRKAERLRAELLDLNRGGFSIRNQKGEQVFRLAFRSGALDLDSCSRDGALLGCSRAADGRPLHFFIQTVRPKDTVMCYRVRWEEAVPGRAVEHAMFLGDAAAHWYGGAEMRTQHWPIRLDGQQEPQPFVTSDVYSSDAAFGGILERYWLSSRAAAIKVNDSVPFHLGWNSTERSMRLQARYHDTSYKPPAGRTAAPELSYRVCVGSDVTSIHKYMVRRYFNKPSRVPASEAFRDPIWSTWALHGRAVDQNKVLQFAQQIRQHRFNSSHLEIDDMYTPAYGDFNFDEGKFPNASDMFRRLRDAGFRVTLWVHPFVNYNSSSFGEGVERELFVREPTGRLPALVRWWNGIGAVLDFTHPEAREWFQGHLRRLRLRYNVTSFKFDAGEVSYLPRDFSTYRPLSDPSVWSRRYTEMAEPFFSLAEVRVGYQSQNISCFFRLVDRDSVWGYDLGLRSLIPAVLTVSMLGYPFILPDMIGGNAVPERTAGRQDGPGPERELYVRWLEVAAFMPAMQFSIPPWQYDAEVVAIAHKFAALRASLVAPLLLELAGEITDTGDPIVRPLWWIAPGDETAHRIDSQFLIGDTLLVAPVLEPGKQERDVYLPAGKWRSYKGELFDKTPVLLTDYPVDLDEVAYFTWAS	failed
MTAGWCCRTVRAALFAAVCVLLAALGHVMMSGTAVPWWAMTVAALVTGGTGWCLAGRERGLALIVSVVVVAQGALHSAFSVAQSAAHSAGSVGADSMPKGSMGSDMSSVHMDSVHMDSMDMGNMGAGHLAHLGHDMGGGSSFGMLAAHSAAALLCGLWLAYGERAAFRILRALAGRLAAPLRLLLALPTPAHRPRIRVRRGSSDRTPRRLLLVHAITSRGPPVGTAVI	failed
MIDCAIIGGGPAGLSAGLYATRGGVKNAVLFEKGMPGGQITGSSEIENYPGVKEVVSGLDFMQPWQEQCFRFGLKHEMTAVQRVSKKDSHFVILAEDGKTFEAKSVIIATGGSPKRTGIKGESEYWGKGVSTCATCDGFFYKNKEVAVLGGGDTAVEEAIYLANICKKVYLIHRRDGFRCAPITLEHAKNNDKIEFLTPYVVEEIKGDASGVSSLSIKNTATNEKRELVVPGFFIFVGYDVNNAVLKQEDNSMLCKCDEYGSIVVDFSMKTNVQGLFAAGDIRIFAPKQVVCAASDGATAALSVISYLEHH	failed
MLQYILAEHPFFVATGALYAAAAGFYAAAWRSTRALVGRAATALLCAALAFNAGLIVERWIEAGRAPFKSLFESLVFFAFTTGVVYLAFERLYRTRVFGALAALLTLALLGYALGKWDAEIVKLPPALQSAWFVPHVVVYFVGYAAVSLAALLAAVQLLAPRVPLLQRLTTLRAGTILTGKALDLEQMTYELIRFGFVLLTVGLLVGSVWAKSAWGDFWVWDPKENWSLVTWLVYGAYLHLRKVRGWRGDRAAWLVLLGFAVVMFTYLGMSMLPTAEESAHVYTG	failed
MIRLAAIDVDGTLTDRDRLISTKAIESIRSAEKKGLTVSLLSGNVIPVVYALKIFLGINGPVFGENGGIMFDNDGSIKKFFSNEGTNKFLEEMSKRTSMRSILTNRWREASTGFDIDPEDVDYVRKEAESRGFVIFYSGYSWHLMNRGEDKAFAVNKLKEMYSLEYDEILVIGDSNNDMPMFQLPVRKACPANATDNIKAVSDFVSDYSYGEEIGQIFKHFELM	not failed
MTDTNTLLVTSLEEGIGKTAITLALATRAHDAGYDVGYMKPKGTRLRSAVGKTRDEDPMLARELLDLETDLHDMEPIVYSPTFIQEAIRGREDPDDLRERLQEGIETCSDGTDMLLVEGSSDLATGSIVDLTDIDIAELLDARVLLVTGYDTPSDTDEILSAAEAIGDRLDGVLFNGVTDATVDELADDVVPFLEGEGIPVHGILPRDRSLAGVTVADLARNLGADILTGDANTDVHVERFSVGAMSGSSALERFRRTRDAVVVTGGDRSEVQTAALEASGINALLLTGGFQPASAVIGQAAEKNVPVLSVQSDTRTTIDRVEEVLRTGQTRNEATVDRMRTLLDDGVDVESLLSVDLLEHHHHHH	not failed
MRAILILLDGLGDRASEILNNKTPLQFAKTPNLDRLAENGMCGLMTTYKEGIPLGTEVAHFLLWGYSLEEFPGRGVIEALGEDIEIEKNAIYLRASLGFVKKDEKGFLVIDRRTKDISREEIEKLVDSLPTCVDGYKFELFYSFDVHFILKIKERNGWISDKISDSDPFYKNRYVMKVKAIRELCKSEVEYSKAKDTARALNKYLLNVYKILQNHKINRKRRKLEKMPANFLLTKWASRYKRVESFKEKWGMNAVILAESSLFKGLAKFLGMDFIKIESFEEGIDLIPELDYDFIHLHTKETDEAAHTKNPLNKVKVIEKIDKLIGNLKLREDDLLIITADHSTPSVGNLIHSGESVPILFYGKNVRVDNVKEFNEISCSNGHLRIRGEELMHLILNYTDRALLYGLRSGDRLRYYIPKDDEIDLLEG	failed
MSIRIKLFLAFLLTTFVVVMGMHFFTRWSLEKGFTEFIEKRQQERLDKIIDVLEEHYAEHRGWGELAGNKQHWISLLWHAGPHRHRPPKWIIEQAQHEPDRQWPPAVTPGTAERKWSPFELRVILLDADRSILFGRKELISQLSLHPVQYEHRTVGFLGLLPGNPVSQASDIYFMEQQADFFFWIALTMVVLSALIAWLMAYHLGRPLKQIAAVVQRLATGDYKARLPVISKDEMGQLALNFNDTAAALEQAEQSRRRWVADISHELRTPLAVLRGELEAILDGVHPLTPAAIESLSGDVLRLNRLTEDLYQLALSDQGALSYRKVLLDPVPLLREDLATFTTDFNHKQISVRWINRLFKPVLVNADPDRLSQLFRNLLTNSLNHTDARGQLEITVQRLADKLVIELADSSPGVSDQDIAHLFDRFYRVDHSRNRHLGGAGLGLAICSNIVRAHEGTLMASHSALGGLAIHIELPITP	failed
